Where only a bound is given, the exact number is not on record here.

Assay [1] has as its target T1, recombinant monkey TfR extracellular region (Macaca fascicularis) with N-terminal histidine tag (Sino … (Macaca fascicularis (crab-eating …, UniProt Q5RDH6 89-760 (Pongo abelii entry)))).
T1 construct: also called r monkey TfR; r monkey TfR-ECD (Histag); not shown: Histidine tag at the N-terminus
T1 chain: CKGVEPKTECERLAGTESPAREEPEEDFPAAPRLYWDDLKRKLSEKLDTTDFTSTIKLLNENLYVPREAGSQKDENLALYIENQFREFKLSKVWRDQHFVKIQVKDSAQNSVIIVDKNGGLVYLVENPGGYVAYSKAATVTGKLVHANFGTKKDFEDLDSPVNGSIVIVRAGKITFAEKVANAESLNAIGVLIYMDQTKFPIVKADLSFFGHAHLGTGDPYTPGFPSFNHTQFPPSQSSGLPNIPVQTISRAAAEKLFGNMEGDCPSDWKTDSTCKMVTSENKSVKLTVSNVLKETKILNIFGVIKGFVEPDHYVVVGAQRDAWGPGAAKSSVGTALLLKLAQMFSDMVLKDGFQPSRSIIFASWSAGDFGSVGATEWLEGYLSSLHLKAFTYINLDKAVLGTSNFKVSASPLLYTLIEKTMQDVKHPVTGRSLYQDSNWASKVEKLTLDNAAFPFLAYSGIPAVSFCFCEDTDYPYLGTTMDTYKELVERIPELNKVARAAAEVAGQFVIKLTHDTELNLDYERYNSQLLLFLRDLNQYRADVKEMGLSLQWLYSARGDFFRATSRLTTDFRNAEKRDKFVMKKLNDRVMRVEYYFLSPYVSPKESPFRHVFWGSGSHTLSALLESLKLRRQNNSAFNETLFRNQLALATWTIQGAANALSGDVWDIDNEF
Description: BLI (Octet RED96) by the method of Example 7.

Assay [2] deals with T2, recombinant human TfR extracellular region with N-terminal histidine tag (Sino Biological Inc.) (human, UniProt P02786 89-760).
T2 construct: also called r human TfR; r human TfR-ECD (Histag); not shown: Histidine tag at the N-terminus
Description: BLI (Octet RED96) by the method of Example 7.

Assay [3] has as its target T2, recombinant human TfR extracellular …. Description: BLI (Octet RED96), His-tagged TfR ECD loaded on Ni-NTA sensor, antibody in solution; human TfR. As to the method: (§1) Purified anti-hTfR antibody No. 3 was diluted in two steps with HBS-P+ (10 mM HEPES containing 150 mM NaCl, 50 μM EDTA and 0.05% Surfactant P20), respectively, to prepare antibody solutions of 7 different concentrations, 0.78125 to 50 nM (0.117 to 7.5 μg/mL). These antibody solutions were used as sample solutions. The r human and r monkey TfRs were respectively diluted with HBS-P+ to prepare 25 pg/mL solutions, which were used as r human TfR-ECD (Histag) solution and r monkey TfR-ECD (Histag) solution, respectively.
(§2) Each of the sample solutions prepared above by 2-fold dilution steps was added, 200 μL/well, to a 96-well plate, black (Greiner Bio-One Inc.). Each of the r human TfR-ECD (Histag) solution and the r monkey TfR-ECD (Histag) solutions prepared above was added, 200 μL/well, to predetermined wells. To respective wells for baseline, dissociation and washing were added HBS-P+, 200 μL/well. To wells for regeneration were added 10 mM Glycine-HCl (pH 1.7), 200 μL/well. To wells for activation was added 0.5 mM NiCl₂ solution, 200 μL/well. The plate and biosensor (Biosensor/Ni-NTA: ForteBio Inc., a division of Pall Corporation) were set in the prescribed positions of Octet RED96.
(§3) The measurement was performed at 25 to 30° C.

Assay [4] addresses T1, recombinant monkey TfR extracellular …. Description: BLI (Octet RED96), His-tagged TfR ECD loaded on Ni-NTA sensor, antibody in solution; monkey TfR. As to the method: as §1, §2, §3

B1: humanized anti-hTfR antibody No. 3 (antibody, human IgG4 S228P, kappa, V domains shown)
VH: EVQLVQSGAEVKKPGESLKISCKGSGYSFTNYWLGWVRQMPGKGLEWMGDIYPGGDYPTYSEKFKVQVTISADKSISTAYLQWSSLKASDTAMYYCARSGNYDEVAYWGQGTLVTVSS
VL: DIVMTQTPLSLSVTPGQPASISCRSSQSLVHSNGNTYLHWYLQKPGQSPQLLIYKVSNRFSGVPDRFSGSGSGTDFTLKISRVEAEDVGVYYCSQSTHVPWTFGQGTKVEIKR
notes: The heavy chain is of IgG4 type; also called humanized antibody of anti-hTfR antibody No. 3
Consider B1, for which the Kd is about 1000 pM in assay [1] and at most 1 pM in assay [2].

B2: mouse anti-hTfR antibody No. 3 (antibody, V domains shown)
VH: EVQLQESGAELVRPGTSVKISCKASGYTFMNYWLGWVKQRPGHGLEWIGDIYPGGDYPTYSEKFKVKAILTADTSSSSVYLHLSSLTSEDSAVYFCARSGNYDEVAYWGQGTLVTVST
VL: DIVMTQTTLSLPVSLGDQASISCRSSQSLVHSNGNTYLHWYLQKPGQSPKLLIYKVSNRFSGVPDRFSGSGSGTDFTLKISRVEAEDLGVFFCSQSTHVPWTFGGGTKLEIKR
notes: Mouse hybridoma antibody; also called anti-hTfR No. 3; antibody of Clone 3 line
Take B2: the Kd in assay [3] and in assay [4] was at most 1 pM each time.

The record behind these values is patent US20210038739A1 (JCR PHARMACEUTICALS, published 2021).
